How the values were obtained:
[1] = target: T1, GST-MOB1 (GST fusion of MOB1, from pGEX-HA-MOB1), Q9H8S9
T1 chain: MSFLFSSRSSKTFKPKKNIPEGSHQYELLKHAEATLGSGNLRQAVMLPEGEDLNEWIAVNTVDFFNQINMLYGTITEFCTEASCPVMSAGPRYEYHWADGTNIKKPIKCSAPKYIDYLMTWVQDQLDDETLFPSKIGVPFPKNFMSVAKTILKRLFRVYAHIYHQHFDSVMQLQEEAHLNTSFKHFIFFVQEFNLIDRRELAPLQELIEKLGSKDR

[2] = target: YAP1 Recombinant Protein (Abnova H00010413-P01), P46937

B1: active recombinant human FAK (catalytic domain, FAK-C) (protein)
chain: ETDDYAEIIDEEDTYTMPSTRDYEIQRERIELGRCIGEGQFGDVHQGIYMSPENPALAVAIKTCKNCTSDSVREKFLQEALTMRQFDHPHIVKLIGVITENPVWIIMELCTLGELRSFLQVRKYSLDLASLILYAYQLSTALAYLESKRFVHRDIAARNVLVSSNDCVKLGDFGLSRYMEDSTYYKASKGKLPIKWMAPESINFRRFTSASDVWMFGVCMWEILMHGVKPFQGVKNNDVIGRIENGERLPMPPNCPPTLYSLMTKCWAYDPSRRPRFTELKAQLSTILEEEKAQQEERMRMESRRQ
[1]
  Y26 phosphorylation of GST-MOB1 in an in vitro kinase reaction (immunoblot): FAK was able to directly phosphorylate MOB1 on its Y26 by in vitro kinase reaction using purified recombinant proteins
[2]
  YAP Y357 phosphorylation in an in vitro kinase reaction (immunoblot): FAK was able to phosphorylate YAP at Y357 in vitro
